Test results: patent publication US20250057918A1 (YALE UNIVERSITY, published 2025)

Columns and labels:
[1] = biological target: T1, mouse IL-18BP (amino acids 31-194) (mouse, UniProt Q9Z0M9 29-193, biotinylated on the AviTag (BirA ligase)); assay: SPR; KD IL-18BP / KD IL-18Rα (30 µM used for NBD)
T1 construct: Secreted decoy receptor; made in Expi293 cells (H7 signal peptide); the stated range is the same as for the human protein; also called mIL-18BP
T1 sequence: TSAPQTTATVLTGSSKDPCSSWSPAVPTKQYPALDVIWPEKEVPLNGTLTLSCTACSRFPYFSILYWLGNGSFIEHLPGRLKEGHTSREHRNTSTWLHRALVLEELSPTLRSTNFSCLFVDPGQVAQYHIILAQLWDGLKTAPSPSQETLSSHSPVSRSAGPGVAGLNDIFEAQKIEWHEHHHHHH
Protocol: By contrast, very little binding is observed with the same variants and mIL-18BP (right). (FIG. 11B) Representative surface plasmon resonance sensorgrams between immobilized biotinylated mIL-18BP and the murine DR-IL-18 variants.
Experiments were conducted using a Biacore™ T100 (Protein analysis interaction system) and carried out at 25° C. Biotinylated IL-18Rα or TL-18BP were immobilized onto a Biacore™ biotin capture chip (Series S CAP sensor chip, GE Healthcare) to yield an Rmax of ˜50 RU (IL-18Rα) or ˜10 RU (IL-18BP). Measurements were made with serial dilutions of the IL-18 variants in HEPES buffered Saline-P+ buffer (10 mM HEPES pH 7.4, 150 mM NaCl, 0.005% surfactant P20). The surface was regenerated by three 60-see injections of regeneration buffer (3/4 (v/v) 8M guanidine hydrochloride with 1/4 (v/v) 1M sodium hydroxide). Experiments were performed in multiple channels simultaneously for increased observations. All data were analyzed with the Biacore™ T100 evaluation software version 2.0 with a 1:1 Langmuir binding model.

[2] = biological target: T1, mouse IL-18BP (amino acids 31-194); assay: on-yeast isotherms; KD IL-18BP / KD IL-18Rα (10 µM used for NBD)

B1: mE8 (ligand)
chain: NFGRLHCTTAVIRNINDQVLFVDKRQPVFEDMTDIDQSASEPQTRLIIYVYTDGRRRGKAVTLSVKDSKMSTLSCKNKIISFEEMDPPENIDDIQSDLIFFQKKVPGHDKMEFESSLYEGHFLACQKEDDAFKLILKKKDENGDKSVMFTLTNLHQS
notes: recombinant with C-terminal hexahistidine tag in SPR
In the case of B1, the “KD ratio: IL-18BP/IL-18Rα” value [1] is reported as > 17800 and the “KD ratio: IL-18BP/IL-18Rα” value [2] is reported as > 238.
